{
  "source": "paper PMC4666614",
  "about": "“Identification of New Regions in HIV-1 gp120 Variable 2 and 3 Loops that Bind to α4β7 Integrin Receptor” (PLoS ONE, 2015)",
  "biological_target": "α4β7 integrin receptor on RPMI8866 cells (human (endogenous in RPMI8866)) (UniProt P13612)",
  "sequence (P13612 34-1032, chain 1 of 2)": "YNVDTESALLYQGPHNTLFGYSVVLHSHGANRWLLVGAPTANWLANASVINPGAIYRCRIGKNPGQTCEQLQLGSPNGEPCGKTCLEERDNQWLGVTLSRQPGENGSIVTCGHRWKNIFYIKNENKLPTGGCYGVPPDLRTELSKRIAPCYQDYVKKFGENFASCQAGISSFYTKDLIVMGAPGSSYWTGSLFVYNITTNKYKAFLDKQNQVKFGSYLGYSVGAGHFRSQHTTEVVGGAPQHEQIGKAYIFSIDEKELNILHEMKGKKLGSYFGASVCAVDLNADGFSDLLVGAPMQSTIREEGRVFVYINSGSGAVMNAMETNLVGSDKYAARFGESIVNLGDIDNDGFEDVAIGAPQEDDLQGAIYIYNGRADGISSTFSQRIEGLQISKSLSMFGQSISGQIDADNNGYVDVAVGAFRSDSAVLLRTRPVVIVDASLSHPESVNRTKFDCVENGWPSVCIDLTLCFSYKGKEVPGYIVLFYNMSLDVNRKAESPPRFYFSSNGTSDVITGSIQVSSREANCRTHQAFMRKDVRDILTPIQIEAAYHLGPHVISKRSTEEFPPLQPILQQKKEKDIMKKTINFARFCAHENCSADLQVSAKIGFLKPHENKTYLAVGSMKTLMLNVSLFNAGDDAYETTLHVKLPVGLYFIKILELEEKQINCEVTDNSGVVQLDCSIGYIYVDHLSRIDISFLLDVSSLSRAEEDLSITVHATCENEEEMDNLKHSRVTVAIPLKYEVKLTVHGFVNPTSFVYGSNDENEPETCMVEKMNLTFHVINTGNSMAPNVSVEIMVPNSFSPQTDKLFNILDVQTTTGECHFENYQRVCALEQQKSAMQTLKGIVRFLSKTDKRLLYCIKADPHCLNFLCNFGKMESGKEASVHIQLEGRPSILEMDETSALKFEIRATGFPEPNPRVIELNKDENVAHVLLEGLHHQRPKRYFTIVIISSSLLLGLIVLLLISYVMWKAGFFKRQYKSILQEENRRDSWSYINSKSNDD",
  "sequence (P26010 20-798, chain 2 of 2, further chain)": "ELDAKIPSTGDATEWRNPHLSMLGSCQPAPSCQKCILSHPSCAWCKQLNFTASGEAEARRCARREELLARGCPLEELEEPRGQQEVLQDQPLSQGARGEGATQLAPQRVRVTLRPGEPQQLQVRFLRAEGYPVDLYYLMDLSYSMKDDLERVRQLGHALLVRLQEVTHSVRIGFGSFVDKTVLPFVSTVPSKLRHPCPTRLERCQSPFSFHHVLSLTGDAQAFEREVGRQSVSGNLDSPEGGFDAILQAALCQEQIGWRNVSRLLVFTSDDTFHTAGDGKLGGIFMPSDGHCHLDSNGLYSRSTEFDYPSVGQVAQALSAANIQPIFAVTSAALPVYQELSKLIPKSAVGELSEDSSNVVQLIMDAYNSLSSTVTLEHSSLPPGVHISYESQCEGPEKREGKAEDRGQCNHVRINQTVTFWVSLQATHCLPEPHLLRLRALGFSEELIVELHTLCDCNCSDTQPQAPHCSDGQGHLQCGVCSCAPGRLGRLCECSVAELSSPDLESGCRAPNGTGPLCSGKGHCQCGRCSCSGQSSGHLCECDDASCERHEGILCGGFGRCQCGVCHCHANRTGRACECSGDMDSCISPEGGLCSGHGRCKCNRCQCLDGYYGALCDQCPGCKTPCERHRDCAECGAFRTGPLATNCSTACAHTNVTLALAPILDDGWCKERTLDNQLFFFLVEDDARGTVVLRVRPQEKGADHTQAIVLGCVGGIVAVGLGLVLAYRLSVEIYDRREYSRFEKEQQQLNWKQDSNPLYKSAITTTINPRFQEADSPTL",
  "data": [
    {"substance": "HIV-1 envelope protein on 92TH023 virions (primary virus, subtype CRF01_AE) (natural protein)", "values": [
      {"measurement": "% inhibition of α4β7 binding to MAdCAM-1 at p24 0.75–3 ng/well", "result": "25 to 35", "unit": "%"}
    ]}
  ]
}
